The data set can be described thus: label from the status in PepcDB records.
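Note: failed if final PepcDB status was selected cloned or expressed and not failed if soluble or beyond.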

For the sequence “MSGLDATIINTAIPAIVSDLHGIQYMGWIVACFLLGMSVSVPIWSKLGERMGNKFAFELSLVLFILGSVLEGVAPDIYFFLISRVLMGVGAGGMGSLPYVIVGFIYPNIKRRTVILSYIAASFSAACIAGPLVGGWIVDALSWHWVFYINVPLGLISIILSIAFYRDAHKSKEKVQFDKMGAFTLIAGLTCFLIGIQMLGLASNVMVALFVIVGIILLISFIFIEKKAKSPIVPLSVFLNKALVGDFVLFALAWGAYIAVNTYLPMWSQAILGTSALIGGMTLIPNSILDIAGSQTAPYFLRRFSNYHLLIVDFTLIAITILGLILVPLNTSYWILMLIAAFSGLGVGSIFVILQIKVQIDASEKDMAPATSLSFLIRILAQTIMAAIYGVIMNLALARGIAGHRGITMTMMNKLSDAESAKSLPTAMLPTMRTIFHSGIIEIMCVALFLVVCAYVINFIYNRKEAKKVAE”, the protein production entry is on record as “failed”.
For “MSGLLSIFDLSDERGVLRTSIAVTFVISFLGIGFGLFSGSFSIVFDGVYSLIDAGMSLLSLIVVNLITSYAVADHLSRKLRERFSFGLWHLEPMVLGLNGILLISAALYALVTAIGSLLSGGRDLEFGSALIYAAVTVIACAGIAAVEWRANRKIGSEFLRLDVRGWIMSAGISAALLIAFMIGLAVQGTSWQWISPYIDPAVLAAVCVLIIPLPVSTVRQALADIFLVTPVDLKKHLDTVAAAFVAKHGFVSYRAYVARVGRSKEIELYFIVPADAPARTIGEWDMLRDEIGDLVGDDGPNRWLTVVFTGDPEWAE” the value was “failed”; for “MSGRYEIRFSGAGGQGLILAGVIMAEAASIYDGKQAVQSQSYGPEARGGASKSEVIISDGPVDYPKATQCDALLALTQEACDKYSADLKEGGVLLVDSDLVTKLPPGNYQTTAFNIINTAKNDVGREIVANIVALGAMVALTGVVSKEAAEKAVLSRVPEAFVELNRKAFQMGFEKALAAKK”, “failed”; for “MSGSLLLLFVFLSAFLAPPLSRLLRMPVPVGELVIGLLLGHFLAQGVALPEILGFLADFGFLLLMFLAGLEVDFNLLRQLERRHFVFYALYVVGMFLGAGLLAGLLGVGLAQALILALVSIGLMVATLRDMGILGRAFAKRVLILGVLGEVASLFGLTAMEKAAHYQGLLSLLKEVGIIALFFLLLFLAFRLAGLFLWWYPEVGRRLVYEEDPSAMGIRLSLALMFAAAVMSGLVGLESVLGAFLAGMILSYFLQKKHDLEAKLSAMGYGFLIPIFFIRTGMGIDLSGLDGRLLLEVGQALLLMLLIRLLPAPFLLLGGFRLREAFLAALLLAYPFTLMIAGTEIARSAHLLDERAALVLLLAAALSSLLFPWTAKMLLRFLR”, “failed”.
“MSGVASGKTAIKSTAKVLSFVVQKHWATRLHYDFRLELEGTMKSWAVPKGPSFDPNDKRMAVHVEDHPISYNSFEGEIPSGQYGAGKVIIWDKGTWIPLEDPHKGYRDGKLKFELRGLKLKGHWALVRMRKEENKKQEPWLLIKEKDEYVRSSREYSVVDEMPDSVAELEHHHHHH”: the protein production result is “failed”.
For “MSHDRSVNVSHDAVIAKPERGTMLQSFSPRSHGSKGYSLPQDSEENRGSVGQSAGQSSTSVVDQVRSPADDAGVTSSSTICPAPVCRQFWKAGSYNDELSSKSQQPNGKNYLHVHPMFLHSNATSHKWAFGAVAELLDNAVDEIQNGATFVIVDKTTNPRDGATALLIQDDGGGMDPQAMRHCMGFGFSDKKSDSAIGRYGNGFKTSTMRLGADVIVFSRHSKNQTLTQSIGLLSYTYLTRTGHDRIVVPILDYEFNASAGEFKTLQDREHFISSLSILLEWSPFSTEAELLQQFDDVGPHGTKVIIYNMWLNSDAKLELDFDSVAEDILIEGSIKKTGSKIVNDHIASRFSYSLRVYLSILYLRIPETFKIILRGKVVEHHNVADDLMHPQYILYKPQAAGSEEALVVTTIGFLKEAPKVNLHGFCVYHKNRLIMPFWQVINYSSSRGRGVVGVLEANFVEPTHNKQDFEKTVLLQKLENRLKEMTVEYWSCHCVLIGYQVNKKPRLQIPQKVQPAGRQALSPPPGFQAVFPQGNTTSLPRVSTQPVLLEKRKEHPDSVASAALKRKVGNDDFTVPGHIRVEQFIHGSASQSQDIETVKLMEENKKLRAKCLDRKVRSQNLEVKAMNLRSELENYKSEYERLMVELQALDLVKDEHRRNVNT” the value was “failed”; for “MSHEQPVTVSVARTILPGYTRQANAWAHAGQELAREWPGYLGSGWVRNGVDSAEWHMLYRFADADSLQEWEDSEERRWWIDSARDMMETTRVERHTGIEGWFSRPGDVSVVVPETVVPPRWKQAISIFLPFFPLSLLANFLLHPLTQDWQLVLSVLLNIVILTPLMTYIFLPITTRLLQPWLQAKPRKRPR”, “failed”; for “MSHKISEYFANDPPSFFDELASKPKGNNLSTEGSSSSASSTSSAPNMMSNTFVGFFQPPEYVETPEAGEDSIKVGDDVRNLWELPRENEPGKLIMPGIHLQTDLADPISVAVTQHLGEAELSYRKILRVDDVTQDERGLRTLIHAGCYRTAVNLTGRLLTIYGQGYGRSGQPAKHSPHSLQLWFTRLALLAKLGEFELLNAEAEPFGQLTSPDVFYDFYPEMYNGKSGSIACFSFRLLLAELPIYLGKPHVALDRLSELHVTTREIKEHYLSLHNKAAEEFWQRRCERVLHSIINCGLMMKKFSMIDDIMEGTLLKRSNLSKEDRRSLYSAWGRIYLQIGDIFGAEQKIAVSRRLREINSAPDLRDLVDKGLIAVAKNDFPEAYVIFQKALHLDTGNTMILNNMGVCLLYAGKLKDAINLYERAINLNPQKSLNESLLVNLSTLYELESNNSKAKKYNLLRLINRYKPDLNISIEICLKLQTIN”, “failed”.
Under “MSHPFEGLPTTPTAEELVDKAFSRASRAGGAKDGNEAQQSMLMTASNIASDNMENVVTAWPTIDDLDPFYVELADAVVGEAYPADDDPGIDALKQHLSEISWAADKVVEIRQEYESRVARGDIDTARKLRKQAFARIADVVEEVEDDLAAISTAHNALKDIPDIRPNEPAIVVAGYPNVGKSSFVNRVTRADNEIASYPFTTTQIRVGHFEDQRIRYQLVDTPGLLDRPPEDRNEIESQAVSALEHLADAVLVFIDPSGECGYPLADQLELRNAIEARFDVPVLTIANKSDLSTDVEADHYMSVTEDDNVDGVLQAAIDAVDYELELPFDE” stands “failed”.
As to “MSIDFYNQNASSFYASTVEVDSSSLLEQFTPYLPKGGSVLDAGCGSGRDSKRLIELGFHVDAFDASAALATLAQQLLGKPVRVATFMQFTSTLQYDGIWACASLLHVSKASLPDAFAHLASMLKSGGAFYCSFKYGQGEVERDGRSFTHCDEALLAELLTGSPLVIDKVWLTTDLRVGRENEQWLNAVLLKRLEHHHHHH”, the protein production entry was “not failed”.
Under “MSIESFNLLLLVMGLVALVVFIALYFVRAGYGMFRSRSWGISVNNKIAWILMEAPVFLVMGWLWWHSDRRFLPVELTFFLFFQLHYFQRAFVFPFLMKGKSKMPVLILLMGVIFNILNGLMQGEWIFYLAPSDYYTPGWLLTPCFWIGTLLFFAGMGINWHSDSVIRHLRAPGDTRHYLPQRGMYRYVTSANYLGEIVEWVGWAILTWSLSGCIFAWWTVANLVPRADAIWHRYREEFGTQVGLKKRIFPFLY” stands “failed”; under “MSIESSATPTTPNAEALQLNSTEVRILGCLIEKQATNPETYPLTLNALVIACNQKTSRDPVMNLTQGQVGQSLRALEGRGLTRLVMGSRADRWEHKVDKGLELVPAQVILTGLLLLRGPQTVSELLTRSNRMHDFEDSEQVVHQLERLIARGLATLVPRQSGQREDRYMHLIGDPEDLQD”, “not failed”; under “MSIIDLTKLEQKVATMWDSILTNSPFIHEVLDGKATKALYAIYMTETYHYTKHNAKNQALVGIMGKDLPGKYLSFCFHHAHEEAGHELMALSDIASIGFDREDVLSSKPLPATETLIAYLYWISATGNPVQRLGYSYWAENVYGYIDPVLKAIQSTLDLTPQSMKFFIAHSKIDAKHAEEVNEMLHEVCKTQEDVDSVVAVMENSLVLTARILDDVWKEYQLFQSGASDRYAFLRDNA”, “not failed”.
On to “MSIITRLFNNSDFEKLNQLCKLYDDLGYPTNENDLKKRLKKITNHDDYFLLLLIKENKIIGLSGMCKMMFYEKNAEYMRILAFVIHSEFRKKGYGKRLLADSEEFSKRLNCKAITLNSGNRNERLSAHKLYSDNGYV”, for which the protein production result is reported as “failed”.
For “MSIKAGFDDRALARVEAAIRADVESGIYDGAVIKVARHGQIALDATIGFSNRRAGAAMREDAVFKVLSLTKAFTTTLVLEAIDLGLLSLTTRVVDVIPEFWGRDLFRSGRKERVNVGHLLTHRAGLSPTPQPLPYDQLHNFSETIQAICALDVVGEPGKAFNYSPTVNHALLGEMVRRVHGAASLAELMDQRLFSRLGMSSTSLGPTSQIRDRLVPLTSDFPEGGWLTNADIKAVADAIEAPNSQMPWVGAMTSAQDVFVFAEMLREQGTVRDERILSPAVVRKATTLQTGDAINDLYKLLADARHWDLPAGNMGLGFALGGDGLTVSQFGTLTSPGTFGNFGAGSTLFWVDPESQITFVCLTAKVMEESENILRFQRLSDLVASAAL” the value was “failed”; for “MSIKIGLLGFGTVASGIPFLLKENGEKVFAASRDQLEIAKVLVKDDEEKDRLIAAGNDYNFVTNVDEILNDEEIQIVVELMGRIEPARTFITKALEAGKNVVSANKDLIATHGKELIALAQDKGVAFYYEAAVAGGIPILRTLANSLTSDKVTRILGVLNGTSNFMMTKMVDEGWSYEDALKTAQELGYAESDPTNDVEGYDAAYKAVILSQFGFGATIDFDDVSHKGITNISTDDVAVAQELGYVIKLVGDVREVESGISAEVSPTFLPKNHPLASVNDVMNAVFVESIGIGESMYYGPGAGQKPTATSVLADIIRIARRLSDGNVGKPFNEFRRDLPLANPADVKSNYYFALDTPDEKGKILHLSEIFNSEDISFEQVLQQKANGTTARIVVITHAMSKTQLKAVTEKLEAAEDFTVVNTLKVLSNLEHHHHHH”, “not failed”.
In the case of “MSIKPKIMISSLDAERLEILLETLSQNAFPGRDDLEAELARAEVVDPEEIPPTVVTMNSTVRFRVESSAEEFCLTLVYPKDVDTSGEKISILAPVGSALLGLAQGDEIEWPKPGGGVLRVRIVEVTYQPERSGEYYR”, the protein production result is on record as “not failed”.
Under “MSIKVEDYFAPETFQRMKAFADKQETPFVVIDKQTIADAYDQLTDCFPFARIYYAVKANPATEITELLRDKGSNFDIASIYELDKVMKTGVGPERISYGNTIKKSKDIRYFYEKGVRLFATDSEADLRNIAKAAPGAKVYVRILTEGSTTADWPLSRKFGCQTDMAMDLLILARQLGLEPYGISFHVGSQQRDISVWDAAIAKVKVIFERLKEEDGIVLKMINMGGGFPANYITKTNDLETYAEEIIRFLKEDFGDDLPEIILEPGRSLIANAGILVSEVVLVARKSRTAVERWVYADVGKFSGLIETMDESIKFPIWTEKQGEMEEVVIAGPTCDSADIMYEHYKYGLPLNLASGDRLYWLSTGAYTTSYSAVEFNGFPPLKAFYL” stands “failed”.
For “MSILLSKTLRELIFWMAWIIIPLIMEIIPAFGGFFILVKKSFNSNREGFIGTLPEITLIIPIYNSEATLKGCIESIYNCSYPTRLIDLILVNNMSSDDSFQVFSQCQKEFCGLSMRYMNSKQGKSKALNMALFNSAGKYIIHIDSDGKLHYDAIKNMIVRFEKNPNIHCMTGAILSDIEGIEKTHKRFLKLIRRCEFFEYAQAFLAGRNFESEINSIYTLSGAFSAFRKSTILKTQLYNSKTVCEDTHITFQVRRLLKKKVYLCENSIFFVDPIENLNKLYTQRQRWQRGEIEVSHMFFKNKMNSPLGFFHNFMIRVVMYDHTFAFPRMIWYFAIIFLFFMNYPVKLVVGSLVIIYMLYVLSTFLFYLNVRIYLKEYKSIREYYKARWGYIFLMPIYNFVVFWIRFAGIINSIKIKSKWKTLTLNDEWTAFLKVIQSDFRMIGKGINKIRRLVND” the value was “failed”.
